# Laboratory results published in patent publication US20200261595A1 (Novo Nordisk, published 2020).
# Changes are numbered by the printed parent chain. Numbers in names are those of the source.
# B1: A14E, A21Q, A22(G)18, A40K^, B25H, B29R, desB30 human insulin/(227A, 234A, 235K hIgG4-Fc(228-447)) 4-[bis[2-[(2-acetyl)amino]ethyl]amino]-4-oxo-butanoyl … (other)
# chain 1: GIVEQCCTSICSLEQLENYCQGGGGGGGGGGGGGGGGGGK
# chain 2: FVNQHLCGSHLVEALYLVCGERGFHYTPR
# chain 3: ASCPAPEAKGGPSVFLFPPKPKDTLMISRTPEVTCVVVDVSQEDPEVQFNWYVDGVEVHNAKTKPREEQFNSTYRVVSVLTVLHQDWLNGKEYKCKVSNKGLPSSIEKTISKAKGQPREPQVYTLPPSQEEMTKNQVSLTCLVKGFYPSDIAVEWESNGQPENNYKTTPPVLDSDGSFFLYSRLTVDKSRWQEGNVFSCSVMHEALHNHYTQKSLSLSLGK
# modifications: Cys229 (EU numbering) sulphur bound to an acetyl arm of the linker; A40K N(eps) acylated by the trivalent linker 4-[bis[2-[(2-acetyl)amino]ethyl]amino]-4-oxo-butanoyl
# notes: also called Ex 5.21
# B2: A14E, A21G, A22(GQAPGQAPGQEP)6-GQAP, A98K^, A99P, B3Q, B25H, B29R, desB30 human insulin/(227A, 234A, 235K hIgG4-Fc(228-447)) … (other)
# chain 1: GIVEQCCTSICSLEQLENYCGGQAPGQAPGQEPGQAPGQAPGQEPGQAPGQAPGQEPGQAPGQAPGQEPGQAPGQAPGQEPGQAPGQAPGQEPGQAPKP
# chain 2: FVQQHLCGSHLVEALYLVCGERGFHYTPR
# chain 3: B1 chain 3
# modifications: Cys229 (EU numbering) sulphur bound to an acetyl arm of the linker; A98K N(eps) acylated by the trivalent linker 4-[bis[2-[(2-acetyl)amino]ethyl]amino]-4-oxo-butanoyl
# notes: also called Ex 5.5
# B3: A14E, A21G, A22(GQAPGQEP)6, A70K^, A71P, B25H, B29R, desB30 human insulin/(227A, 234A, 235K hIgG4-Fc(228-447)) … (other)
# chain 1: GIVEQCCTSICSLEQLENYCGGQAPGQEPGQAPGQEPGQAPGQEPGQAPGQEPGQAPGQEPGQAPGQEPKP
# chain 2: FVNQHLCGSHLVEALYLVCGERGFHYTPR
# chain 3: B1 chain 3
# modifications: Cys229 (EU numbering) sulphur bound to an acetyl arm of the linker; A70K N(eps) acylated by the trivalent linker 4-[bis[2-[(2-acetyl)amino]ethyl]amino]-4-oxo-butanoyl
# notes: also called Ex 5.9
# B4: (A14E, A21G, A22(GQAP)19, A98K^, A99P, B25H, B29R, desB30 human insulin)/(227A, 234A, 235K, 297E, 315Q, 384Q, des447 hIgG4-Fc(228-447)) … (other)
# chain 1: B2 chain 1 with E32A, E44A, E56A, E68A, E80A, E92A
# chain 2: FVNQHLCGSHLVEALYLVCGERGFHYTPR
# chain 3: ASCPAPEAKGGPSVFLFPPKPKDTLMISRTPEVTCVVVDVSQEDPEVQFNWYVDGVEVHNAKTKPREEQFESTYRVVSVLTVLHQDWLQGKEYKCKVSNKGLPSSIEKTISKAKGQPREPQVYTLPPSQEEMTKNQVSLTCLVKGFYPSDIAVEWESQGQPENNYKTTPPVLDSDGSFFLYSRLTVDKSRWQEGNVFSCSVMHEALHNHYTQKSLSLSLG
# modifications: Cys229 (EU numbering) sulphur bound to an acetyl arm of the linker; A98K N(eps) acylated by the trivalent linker 4-[bis[2-[(2-acetyl)amino]ethyl]amino]-4-oxo-butanoyl
# notes: also called Ex 5.15
# B5: (A14E, A21G, A22(GQAP)19, A98K^, A99P, B25H, B29R, desB30 human insulin)/(227A, 234A, 235K, 297E, 315Q, 384Q, des447 hIgG4-Fc(228-447)) … (other)
# chain 1: B2 chain 1 with E32A, E44A, E56A, E68A, E80A, E92A
# chain 2: FVNQHLCGSHLVEALYLVCGERGFHYTPR
# chain 3: B4 chain 3
# modifications: Cys229 (EU numbering) sulphur bound to an acetyl arm of the linker; A98K N(eps) acylated by the trivalent linker 6-[bis[2-[(2-acetyl)amino]ethyl]amino]-6-oxo-hexanoyl
# notes: also called Ex 5.16
# B6: (A14E, A21G, A22(GQAP)24, A118G, A119Q, A120A, A121K^, A122P, B25H, B29R, desB30 human insulin)/(227A, 234A, 235K, 297E, 315Q, 384Q, des447 hIgG4-Fc(228-447)) … (other)
# chain 1: GIVEQCCTSICSLEQLENYCGGQAPGQAPGQAPGQAPGQAPGQAPGQAPGQAPGQAPGQAPGQAPGQAPGQAPGQAPGQAPGQAPGQAPGQAPGQAPGQAPGQAPGQAPGQAPGQAPGQAKP
# chain 2: FVNQHLCGSHLVEALYLVCGERGFHYTPR
# chain 3: B4 chain 3
# modifications: Cys229 (EU numbering) sulphur bound to an acetyl arm of the linker; A121K N(eps) acylated by the trivalent linker 4-[bis[2-[(2-acetyl)amino]ethyl]amino]-4-oxo-butanoyl
# notes: also called Ex 5.23
# B7: A14E, A21G, A22(GQEP)6, A46K^, A47P, B25H, B29R, desB30 human insulin/(227A, 234A, 235K, 297E, 315Q, 384Q, des447 hIgG4-Fc(228-447)) … (other)
# chain 1: GIVEQCCTSICSLEQLENYCGGQEPGQEPGQEPGQEPGQEPGQEPKP
# chain 2: FVNQHLCGSHLVEALYLVCGERGFHYTPR
# chain 3: B4 chain 3
# modifications: Cys229 (EU numbering) sulphur bound to an acetyl arm of the linker; A46K N(eps) acylated by the trivalent linker 4-[bis[2-[(2-acetyl)amino]ethyl]amino]-4-oxo-butanoyl
# notes: also called Ex 5.32
# B8: A14E, A21G, A22(GQAPGQEP)6, A70K^, A71P, B25H, B29R, desB30 human insulin/(227A, 234A, 235K, 297E, 315Q, 384Q, des447 hIgG4-Fc(228-447)) … (other)
# chain 1: B3 chain 1
# chain 2: FVNQHLCGSHLVEALYLVCGERGFHYTPR
# chain 3: B4 chain 3
# modifications: Cys229 (EU numbering) sulphur bound to an acetyl arm of the linker; A70K N(eps) acylated by the trivalent linker 4-[bis[2-[(2-acetyl)amino]ethyl]amino]-4-oxo-butanoyl
# notes: also called Ex 5.14
# B9: A14E, A21G, A22(GQEP)19, A98K^, A99P, B3Q, B25H, B29R, desB30 human insulin/(227A, 234A, 235K, 297E, 315Q, 384Q, des447 hIgG4-Fc(228-447)) … (other)
# chain 1: GIVEQCCTSICSLEQLENYCGGQEPGQEPGQEPGQEPGQEPGQEPGQEPGQEPGQEPGQEPGQEPGQEPGQEPGQEPGQEPGQEPGQEPGQEPGQEPKP
# chain 2: FVQQHLCGSHLVEALYLVCGERGFHYTPR
# chain 3: B4 chain 3
# modifications: Cys229 (EU numbering) sulphur bound to an acetyl arm of the linker; A98K N(eps) acylated by the trivalent linker 4-[bis[2-[(2-acetyl)amino]ethyl]amino]-4-oxo-butanoyl
# notes: also called Ex 5.2
# B10: A14E, A21G, A22(GQAPGQAPGQAPGQEP)6-GQAP, A122K^, A123P, B25H, B29R, desB30 human insulin/(227A, 234A, 235K, 297E, 315Q, 384Q, des447 hIgG4-Fc(228-447)) … (other)
# chain 1: GIVEQCCTSICSLEQLENYCGGQAPGQAPGQAPGQEPGQAPGQAPGQAPGQEPGQAPGQAPGQAPGQEPGQAPGQAPGQAPGQEPGQAPGQAPGQAPGQEPGQAPGQAPGQAPGQEPGQAPKP
# chain 2: FVNQHLCGSHLVEALYLVCGERGFHYTPR
# chain 3: B4 chain 3
# modifications: Cys229 (EU numbering) sulphur bound to an acetyl arm of the linker; A122K N(eps) acylated by the trivalent linker 4-[bis[2-[(2-acetyl)amino]ethyl]amino]-4-oxo-butanoyl
# notes: also called Ex 5.20
# B11: (A14E, A21G, A22(GQAP)24, A118G, A119Q, A120A, A121K^, A122P, B25H, B29R, desB30 human insulin)/(227A, 234A, 235K, 297E, 315Q, 384Q, des447 hIgG4-Fc(228-447)) … (other)
# chain 1: B6 chain 1
# chain 2: FVNQHLCGSHLVEALYLVCGERGFHYTPR
# chain 3: B4 chain 3
# modifications: Cys229 (EU numbering) sulphur bound to an acetyl arm of the linker; A121K N(eps) acylated by the trivalent linker 3,5-bis[(2-acetyl)amino]benzoyl
# notes: also called Ex 5.22
# Target: insulin receptor of isolated rat adipocytes (rat, UniProt P15127 27-1383)
# Sequence (P15127 27-1383): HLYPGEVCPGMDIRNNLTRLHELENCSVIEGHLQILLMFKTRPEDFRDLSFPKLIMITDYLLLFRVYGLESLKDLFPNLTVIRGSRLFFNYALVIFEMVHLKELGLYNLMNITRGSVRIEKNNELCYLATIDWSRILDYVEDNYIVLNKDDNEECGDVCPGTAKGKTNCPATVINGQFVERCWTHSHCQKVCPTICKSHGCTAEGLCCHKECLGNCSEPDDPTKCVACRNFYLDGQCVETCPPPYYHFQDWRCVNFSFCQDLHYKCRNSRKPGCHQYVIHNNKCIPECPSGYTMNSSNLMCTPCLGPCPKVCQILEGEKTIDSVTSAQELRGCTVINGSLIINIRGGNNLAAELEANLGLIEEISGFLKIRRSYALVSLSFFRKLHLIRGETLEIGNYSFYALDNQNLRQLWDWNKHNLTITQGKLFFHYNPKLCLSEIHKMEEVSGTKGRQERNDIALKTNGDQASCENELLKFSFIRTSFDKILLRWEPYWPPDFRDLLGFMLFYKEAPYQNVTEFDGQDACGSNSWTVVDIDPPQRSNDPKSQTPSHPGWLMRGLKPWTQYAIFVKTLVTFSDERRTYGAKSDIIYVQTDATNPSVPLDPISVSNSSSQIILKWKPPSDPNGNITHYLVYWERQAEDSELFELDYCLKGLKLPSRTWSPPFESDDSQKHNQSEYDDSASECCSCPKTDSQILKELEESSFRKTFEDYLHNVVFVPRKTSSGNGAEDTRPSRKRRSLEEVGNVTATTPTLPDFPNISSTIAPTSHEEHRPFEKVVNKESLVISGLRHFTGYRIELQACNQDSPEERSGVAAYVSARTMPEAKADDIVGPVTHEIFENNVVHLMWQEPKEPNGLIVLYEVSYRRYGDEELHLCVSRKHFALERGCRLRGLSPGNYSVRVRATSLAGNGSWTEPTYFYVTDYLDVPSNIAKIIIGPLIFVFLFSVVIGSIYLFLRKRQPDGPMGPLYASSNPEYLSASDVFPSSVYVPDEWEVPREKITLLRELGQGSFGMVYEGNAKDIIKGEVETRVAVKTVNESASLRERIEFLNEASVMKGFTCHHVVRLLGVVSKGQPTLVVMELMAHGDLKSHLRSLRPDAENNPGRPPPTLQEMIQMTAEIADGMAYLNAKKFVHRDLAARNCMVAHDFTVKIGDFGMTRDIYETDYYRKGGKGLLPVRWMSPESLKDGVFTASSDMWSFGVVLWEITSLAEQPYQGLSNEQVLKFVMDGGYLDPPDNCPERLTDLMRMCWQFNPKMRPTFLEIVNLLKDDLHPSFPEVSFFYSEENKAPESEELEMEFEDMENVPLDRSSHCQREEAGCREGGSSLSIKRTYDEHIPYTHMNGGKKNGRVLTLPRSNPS
# Assay: cell-based or functional assay
row,Lipogenesis in rat adipocytes [Potency (%)] Mean Value,Binder
1,0.95 % of human insulin,B1
2,2.21 % of human insulin,B2
3,3.02 % of human insulin,B3
4,3.68 % of human insulin,B4
5,4.34 % of human insulin,B5
6,5.36 % of human insulin,B6
7,3.72 % of human insulin,B7
8,4.86 % of human insulin,B8
9,3.57 % of human insulin,B9
10,5.41 % of human insulin,B10
11,4.64 % of human insulin,B11

# Target: insulin receptor A (UniProt P06213-2 28-1370, limits assumed)
# Sequence (P06213 other isoform, or with tags, fused parts or gaps limits assumed): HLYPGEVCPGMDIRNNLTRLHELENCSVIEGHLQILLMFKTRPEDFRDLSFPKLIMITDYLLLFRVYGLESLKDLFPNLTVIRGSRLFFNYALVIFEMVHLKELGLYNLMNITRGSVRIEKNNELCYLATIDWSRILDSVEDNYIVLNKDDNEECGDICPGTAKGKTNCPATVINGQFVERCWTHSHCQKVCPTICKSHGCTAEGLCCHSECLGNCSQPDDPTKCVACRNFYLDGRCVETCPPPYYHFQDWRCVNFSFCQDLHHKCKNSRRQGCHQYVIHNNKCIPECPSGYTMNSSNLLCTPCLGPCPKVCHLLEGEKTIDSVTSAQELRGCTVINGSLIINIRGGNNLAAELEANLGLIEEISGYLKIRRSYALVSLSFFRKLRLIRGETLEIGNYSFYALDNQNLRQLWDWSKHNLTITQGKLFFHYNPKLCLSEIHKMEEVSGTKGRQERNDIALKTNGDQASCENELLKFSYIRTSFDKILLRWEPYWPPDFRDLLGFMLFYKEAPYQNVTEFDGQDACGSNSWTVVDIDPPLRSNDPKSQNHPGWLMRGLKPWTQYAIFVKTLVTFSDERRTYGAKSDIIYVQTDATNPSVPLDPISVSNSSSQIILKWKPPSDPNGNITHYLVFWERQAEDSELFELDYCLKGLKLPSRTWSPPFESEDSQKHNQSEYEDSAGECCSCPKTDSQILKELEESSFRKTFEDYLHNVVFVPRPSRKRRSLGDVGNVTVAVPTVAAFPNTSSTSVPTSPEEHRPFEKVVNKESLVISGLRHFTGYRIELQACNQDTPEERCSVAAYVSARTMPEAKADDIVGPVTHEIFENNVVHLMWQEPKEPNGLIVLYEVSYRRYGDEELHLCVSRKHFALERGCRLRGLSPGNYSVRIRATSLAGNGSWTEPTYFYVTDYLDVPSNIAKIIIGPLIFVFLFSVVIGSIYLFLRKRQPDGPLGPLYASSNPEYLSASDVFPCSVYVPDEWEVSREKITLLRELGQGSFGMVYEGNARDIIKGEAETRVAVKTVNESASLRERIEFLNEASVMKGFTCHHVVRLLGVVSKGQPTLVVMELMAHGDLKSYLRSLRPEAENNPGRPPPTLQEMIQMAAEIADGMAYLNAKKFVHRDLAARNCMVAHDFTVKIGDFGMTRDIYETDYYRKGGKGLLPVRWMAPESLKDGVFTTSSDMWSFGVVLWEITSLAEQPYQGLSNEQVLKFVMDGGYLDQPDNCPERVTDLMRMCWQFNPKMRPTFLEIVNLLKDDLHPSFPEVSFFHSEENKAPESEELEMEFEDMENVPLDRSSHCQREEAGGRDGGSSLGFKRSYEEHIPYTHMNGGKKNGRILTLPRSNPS
# Assay: insulin receptor binding assay as in Vienberg et al. 2011; relative to human insulin on insulin receptor A (100%)
row,Insulin receptor affinity [IC50 relative to HI (%)],Binder
1,2.1%,B1
2,3.34%,B2
3,2.96%,B3
4,3.68%,B4
5,3.86%,B5
6,4.7%,B6
7,2.16%,B7
8,5.37%,B8
9,6.1%,B9
10,5.49%,B10
11,3.56%,B11
